{"source": "patent US20080152663A1", "molecular_target": "B61/B51 (on B61/B51-matched allogeneic LCL)", "test": "cell-based or functional assay", "data": [{"binder": "QEPLYPVQVSSADARLMVFDKTEGTWRLLCSSRSNAR", "note": "[hepsin peptide 48-84 (residues 48-84 of hepsin)]", "values": [{"measurement": "Percent cell killing; B61/B51-matched allogeneic LCL + peptide; CD8+ T cells of donor", "value": 27.1, "unit": "%"}]}]}
